# Values of other authors as cited in article PMC4540356 (Thrombosis and haemostasis, 2010).
# B1: nicotinomide phosphoribosyltransferase/pre-B cell colony-enhancing factor (protein, UniProt P43490 1-491, looked up)
# Nicotinamide …: MNPAAEAEFNILLATDSYKVTHYKQYPPNTSKVYSYFECREKKTENSKLRKVKYEETVFYGLQYILNKYLKGKVVTKEKIQEAKDVYKEHFQDDVFNEKGWNYILEKYDGHLPIEIKAVPEGFVIPRGNVLFTVENTDPECYWLTNWIETILVQSWYPITVATNSREQKKILAKYLLETSGNLDGLEYKLHDFGYRGVSSQETAGIGASAHLVNFKGTDTVAGLALIKKYYGTKDPVPGYSVPAAEHSTITAWGKDHEKDAFEHIVTQFSSVPVSVVSDSYDIYNACEKIWGEDLRHLIVSRSTQAPLIIRPDSGNPLDTVLKVLEILGKKFPVTENSKGYKLLPPYLRVIQGDGVDINTLQEIVEGMKQKMWSIENIAFGSGGGLLQKLTRDLLNCSFKCSYVVTNGLGINVFKDPVADPNKRSKKGRLSLHRTPAGNFVTLEEGKGDLEEYGQDLLHTVFKNGKVTKSYSFDEIRKNAQLNIELEAAHH
# Tested on: endothelial cells
# Details: via activation of ERK1/2 and Akt, ref [39]
molecule,measurement,value
B1,peNOS and NO induction in endothelial cells,induce peNOS and NO in endothelial cells
